Source: patent US20240052051A1 (Regeneron, published 2024)

Target: T1, human transferrin receptor extracellular domain with hexahistidine-myc-myc tag (REGN2431) (human, UniProt P02786 89-760)
T1 construct: also called hTFR-mmh; hmm.hTfRC
Experiment: blocking ELISA: supernatant pre-mixed with 300 pM Hmm-hTFRC, hTFRC bound to immobilized human holo-Tf read
Method: In the blocking assay, the anti-human Transferrin goat IgG polyclonal antibody (anti-hTf pAb) was passively absorbed at a concentration of 2 micrograms/mL in PBS on a 96-well microtiter plate overnight at 4° C. […] To the same plate, human holo-Tf was then added at a concentration of 1 micrograms/mL in PBS+0.5% BSA for 2 hours at room temperature. […] After a 1-hour incubation, the mixtures were transferred to the human holo-Tf microtiter plates. […] The plates were developed using TMB substrate solution according to the manufacturer's recommended procedure and absorbance at 450 nm was measured on a Victor™ Multilabel Plate Reader.
The ability of the anti-TfR antibody to block human TFRC binding to human holo-Tf was evaluated using an ELISA-based blocking assay.

T1 sequence (P02786 other isoform, or with tags, fused parts or gaps): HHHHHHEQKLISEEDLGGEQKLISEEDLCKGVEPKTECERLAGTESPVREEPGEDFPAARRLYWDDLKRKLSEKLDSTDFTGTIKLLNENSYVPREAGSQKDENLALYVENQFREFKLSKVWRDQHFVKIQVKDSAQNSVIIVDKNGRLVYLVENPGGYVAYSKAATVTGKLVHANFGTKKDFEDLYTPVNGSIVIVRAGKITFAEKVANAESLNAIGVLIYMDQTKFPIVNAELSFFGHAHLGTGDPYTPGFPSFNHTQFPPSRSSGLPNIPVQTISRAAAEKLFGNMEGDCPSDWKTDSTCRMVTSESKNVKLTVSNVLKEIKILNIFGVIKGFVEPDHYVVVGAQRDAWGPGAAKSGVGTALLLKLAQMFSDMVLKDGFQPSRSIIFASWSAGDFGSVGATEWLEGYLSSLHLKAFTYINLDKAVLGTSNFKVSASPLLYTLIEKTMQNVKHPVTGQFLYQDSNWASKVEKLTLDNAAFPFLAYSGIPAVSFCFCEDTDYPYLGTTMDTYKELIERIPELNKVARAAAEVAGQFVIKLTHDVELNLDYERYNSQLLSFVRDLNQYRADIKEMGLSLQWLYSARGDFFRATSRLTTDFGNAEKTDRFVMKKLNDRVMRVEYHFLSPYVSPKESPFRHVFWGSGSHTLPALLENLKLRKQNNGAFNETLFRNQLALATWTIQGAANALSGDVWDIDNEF

B1: 69348 anti-hTfR scFv (VH-VK) (scFv)
scFv: QVQLVESGGGVVQPGRSLRLSCAASGFTFTTYGMHWVRQAPGKGLEWVAVIWYDGSNKYYGDSVKGRFTISRDNSKNTLYLQMNSLRVDDTAVYYCTRTHGYTRSSDGFDYWGQGTLVTVSSGGGGSGGGGSGGGGSDIQMTQSPSSLSASVGDRVTITCRASQSIRNVLGWFQQKPGKAPQRLIYAASSLQSGVPSRFSGSGSGTEFTLTISSLQPEDFATYYCLQHNFYPLTFGGGTKVEIK
notes: also called 69348 scFv (VH - VK) Format
With B1 the “% Blocking” value was 0%.
